Source: CN109721655A (ZONHON BIOPHARMA INST INC, dated 2019)

T1: 重组人肌红蛋白 (recombinant human myoglobin, expressed in E. coli, made in-house) (human, UniProt P02144 2-154)
T1 construct: also called 人MYO; 重组人MYO
T1 sequence (looked up): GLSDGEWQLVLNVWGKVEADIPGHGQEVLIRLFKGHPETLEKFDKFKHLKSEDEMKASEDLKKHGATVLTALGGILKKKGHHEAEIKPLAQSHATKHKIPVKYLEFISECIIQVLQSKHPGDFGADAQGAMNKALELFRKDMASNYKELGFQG


Tests used:
[1] = molecular target: T1, 重组人肌红蛋白 (recombinant human myoglobin, …); assay: Western blot of recombinant MYO with HRP-labelled M26 (1:1000)
[2] = molecular target: T1, 重组人肌红蛋白 (recombinant human myoglobin, …); assay: Western blot of recombinant MYO with HRP-labelled M08 (1:1000)
[3] = molecular target: T1, 重组人肌红蛋白 (recombinant human myoglobin, …); assay: indirect ELISA, hybridoma supernatant on plates coated with recombinant human MYO at 1 μg/mL, HRP goat anti-mouse IgG

Binder	binding result [3]	further results
单链抗体M26 (anti-human myoglobin scFv M26, His-tagged, expressed in E. coli) (scFv, Purified on HisTrap HP; HRP-labelled for the Western blot; Coated on the T line of the nitrocellulose membrane in the test card; also called M26抗体; M26-scFv; not shown: histidine tag added downstream of the scFv gene) scFv: QVQLQQSGDDLVKPGASVKLSCKASGYTFTSYWINWIKQRPGQGLEWIGRIAPEGDSTYYNEMFKGKATLTVDTSSSTAYIQLSSLSSEDSAVYFCAREVRNAMDYWGQGTSVTVSSGGGGSGGGGSGGGGSDIQMNQSPSSLSASLGDTITITCHASQNIHVWLSWYLQKPGNITKLLIYEASNLHTGVPSRFSGSGSGTGFTLTISSLQPEDIATYYCQQGQRYPLTFGGGTKLEIK		binding result [1]: binds
单链抗体M08 (anti-human myoglobin scFv M08, His-tagged, expressed in E. coli) (scFv, Purified on HisTrap HP; HRP-labelled for the Western blot; Coupled to time-resolved fluorescent microspheres in the test card; also called M08抗体; M08-scFv; not shown: histidine tag added downstream of the scFv gene) scFv: QVQLQQSGAELAKPGASVKMSCKASGYTFTSYWMHWVKQRPGQGLEWIGYIKPNTDYTEYNQKFKDKATLTADKSSSTAYMQLSSLTSEDSAVYYCTRIRGYALDYWGQGTSVTVSSGGGGSGGGGSGGGGSDIVMTQSPSSLTVTAGEKVTMICKSSQSLLNSGNQKNYLTWYQQKPGQPPKLLIYWASTRESGVPDRFTGSGSGTDFTLTISSVQAEDLAVYYCQNDYNFPLTFGAGTKLELK		binding result [2]: binds

Further lines, with some results ahead:

binding result [3]	Binder	further results
binds	杂交瘤细胞株M26的抗体 (mouse monoclonal antibody from hybridoma M26) (antibody, V domains shown, Tested as hybridoma culture supernatant; Mouse IgG, detected with HRP goat anti-mouse IgG) VH: QVQLQQSGDDLVKPGASVKLSCKASGYTFTSYWINWIKQRPGQGLEWIGRIAPEGDSTYYNEMFKGKATLTVDTSSSTAYIQLSSLSSEDSAVYFCAREVRNAMDYWGQGTSVTVSS VL: DIQMNQSPSSLSASLGDTITITCHASQNIHVWLSWYLQKPGNITKLLIYEASNLHTGVPSRFSGSGSGTGFTLTISSLQPEDIATYYCQQGQRYPLTFGGGTKLEIK	
binds	杂交瘤细胞株M08的抗体 (mouse monoclonal antibody from hybridoma M08) (antibody, V domains shown, Tested as hybridoma culture supernatant; Mouse IgG, detected with HRP goat anti-mouse IgG) VH: QVQLQQSGAELAKPGASVKMSCKASGYTFTSYWMHWVKQRPGQGLEWIGYIKPNTDYTEYNQKFKDKATLTADKSSSTAYMQLSSLTSEDSAVYYCTRIRGYALDYWGQGTSVTVSS VL: DIVMTQSPSSLTVTAGEKVTMICKSSQSLLNSGNQKNYLTWYQQKPGQPPKLLIYWASTRESGVPDRFTGSGSGTDFTLTISSVQAEDLAVYYCQNDYNFPLTFGAGTKLELK	
